B1: DH1047 Fab (Fab, V domains shown)
VH: QVQLVQSGAEVKKPGASVQVSCQASANTFTNHYIHWVRQAPGQGLEWMGIIYPTGGNTIYAQGFQGRVTMTRDTSLNTIYLELSSLRSEDTAVYYCARDVRVDDSWSGYDLLSGGTYFDYWGQGTLVTVSS
VL: not shown
B2: DH1041 Fab (Fab, V domains shown)
VH: EVQLVESGGGLVQPGGSLRLSCAASGVTFSSYWMSWVRQAPGKGLEWVANIRQDGSEKYSVDSVKGRFTISRDNAKNSLYLQMNSLRAEDTAVYYCARARRADNSGYYGFHFDCWGQGTLVTVSS
VL: QSVLTQPPSVSGAPGQRVTISCTGSSSNIGAGYDVHWYQQLPGTAPKLLIYGNNNRPSGVPDRFSDSKSGTSASLAITRLQAEDEADYYCQSYDSSLSGWVFGGGTKLTVL

Target: SARS-CoV-2 Spike ectodomain trimer stabilized with 2 proline mutations (S-2P) (SARS-CoV-2, Wuhan-Hu-1, stabilised)
Test: cryo-EM structure

Binder	stoichiometry N
B1	3 Fabs per S-2P trimer
B2	3 Fabs per S-2P trimer

Reference: article doi:10.1101/2020.12.31.424729 (bioRxiv, 2020)
